Results reported in article PMC11482615, “Novel Peptides LFLLP and DFFL from Jack Bean Protein Hydrolysates Suppress the Inflammatory Response in Lipopolysaccharide-Stimulated RAW 264.7 Cells” (Foods, 2024).
Residues, ends and D or L forms follow the SMILES beside them. *: point of attachment. FITC = O=C1OC2(c3ccc(O)cc3Oc3cc(O)ccc32)c2ccc(NC(=S)*)cc21

Test system: RAW 264.7 cells
Assay: Visualization of FITC-conjugated peptides in RAW 264.7 cells (fluorescence microscopy)
Format: cell-based, mouse
Settings: 200 μmol/L FITC-conjugated peptide, 24 h; for incorporation into RAW 264.7 cells (fluorescence signal): intensity of the two peptides roughly comparable; for cellular localization in RAW 264.7 cells: non-colocalization with DAPI
Experimental: To visualize the cellular localization of peptides, LFLLP and DFFL were conjugated with fluorescein isothiocyanate isomer-I (FITC-I, Dojindo). Briefly, the LFLLP and DFFL were mixed with FITC-I in a carbonate buffer at pH 9.5 for 2 h. To purify the FITC-conjugated peptides, the mixture was applied to a Sep-Pak C18 cartridge. RAW 264.7 cells were seeded in a 6-well plate (0.5 × 10^4 cells/cm^2). After 3 days, the cells were incubated with FITC-conjugated peptides (LFLLP and DFFL, 200 µmol/L) for 24 h. The cells were then washed with cold PBS and fixed with 4% PFA for 10 min. Lastly, the cells were washed three times with PBS and mounted on microscope slides using a mounting fluid containing DAPI, and the fluorescence signals were visualized using a Leica DMI6000 B fluorescence microscope (Leica).

Row | SMILES | incorporation into RAW 264.7 cells (fluorescence signal) | cellular localization in RAW 264.7 cells
1 | CC(C)C[C@H](NC(=O)[C@H](Cc1ccccc1)NC(=O)[C@H](Cc1ccccc1)NC(=O)[C@H](CC(=O)O)NC(=S)Nc1ccc2c(c1)C(=O)OC21c2ccc(O)cc2Oc2cc(O)ccc21)C(=O)O [FITC-conjugated DFFL] ({FITC}-DFFL-OH) | observed in most cells | predominantly localized in the cytosols
2 | CC(C)C[C@H](NC(=O)[C@H](Cc1ccccc1)NC(=O)[C@H](CC(C)C)NC(=S)Nc1ccc2c(c1)C(=O)OC21c2ccc(O)cc2Oc2cc(O)ccc21)C(=O)N[C@@H](CC(C)C)C(=O)N1CCC[C@H]1C(=O)O [FITC-conjugated LFLLP] ({FITC}-LFLLP-OH) | observed in most cells | predominantly localized in the cytosols
